Three substances from article PMC5552277 can be followed below.

The target in data set [1] is TFAM-CTΔ26;POLRMT;TFB2M del221-246 (human;human?;human?) (UniProt Q00059+O00411+Q9H5Q4). Kind of data set: DNase I footprinting. To be noted: Footprinting: 10 mM HEPES pH 7.5, 10 mM MgCl2, 10 mM CaCl2 (so in the source), 100 mM NaCl, 1 mM TCEP, 0.1 mg/mL BSA, 32°C; AFM buffer not in material.
The target of data set [2] is T1, TFAM (WT) (human) (UniProt Q00059).
T1 sequence: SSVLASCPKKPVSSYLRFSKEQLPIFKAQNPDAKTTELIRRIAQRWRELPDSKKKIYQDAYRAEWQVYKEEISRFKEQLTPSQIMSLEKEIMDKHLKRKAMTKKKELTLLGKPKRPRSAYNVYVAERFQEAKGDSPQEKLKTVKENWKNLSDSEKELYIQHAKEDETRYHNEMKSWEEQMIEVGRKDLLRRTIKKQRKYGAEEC
Kind of data set: DNase I footprinting. Conditions: Footprinting: 10 mM HEPES pH 7.5, 10 mM MgCl2, 10 mM CaCl2 (so in the source), 100 mM NaCl, 1 mM TCEP, 0.1 mg/mL BSA, 32°C; AFM buffer not in material.

Data set [3] has as its system TFAM (WT) (human). Kind of data set: AFM in liquid, fractional DNA contour coverage. To be noted: effective free TFAM concentration; Footprinting: 10 mM HEPES pH 7.5, 10 mM MgCl2, 10 mM CaCl2 (so in the source), 100 mM NaCl, 1 mM TCEP, 0.1 mg/mL BSA, 32°C; AFM buffer not in material.
Data set [4] has as its system TFAM-CTΔ26 (human). The experiment in a line: AFM in liquid, persistence length. To be noted: 100 nM CTΔ26 (33 nm) similar to 10 nM TFAM (30 nm); no looping enhancement; Footprinting: 10 mM HEPES pH 7.5, 10 mM MgCl2, 10 mM CaCl2 (so in the source), 100 mM NaCl, 1 mM TCEP, 0.1 mg/mL BSA, 32°C; AFM buffer not in material.

Sequence of TFAM-CTΔ26;POLRMT;TFB2M del221-246 (human;human?;human?) (O00411 42-1230, stated change not applied, chain 2 of 2): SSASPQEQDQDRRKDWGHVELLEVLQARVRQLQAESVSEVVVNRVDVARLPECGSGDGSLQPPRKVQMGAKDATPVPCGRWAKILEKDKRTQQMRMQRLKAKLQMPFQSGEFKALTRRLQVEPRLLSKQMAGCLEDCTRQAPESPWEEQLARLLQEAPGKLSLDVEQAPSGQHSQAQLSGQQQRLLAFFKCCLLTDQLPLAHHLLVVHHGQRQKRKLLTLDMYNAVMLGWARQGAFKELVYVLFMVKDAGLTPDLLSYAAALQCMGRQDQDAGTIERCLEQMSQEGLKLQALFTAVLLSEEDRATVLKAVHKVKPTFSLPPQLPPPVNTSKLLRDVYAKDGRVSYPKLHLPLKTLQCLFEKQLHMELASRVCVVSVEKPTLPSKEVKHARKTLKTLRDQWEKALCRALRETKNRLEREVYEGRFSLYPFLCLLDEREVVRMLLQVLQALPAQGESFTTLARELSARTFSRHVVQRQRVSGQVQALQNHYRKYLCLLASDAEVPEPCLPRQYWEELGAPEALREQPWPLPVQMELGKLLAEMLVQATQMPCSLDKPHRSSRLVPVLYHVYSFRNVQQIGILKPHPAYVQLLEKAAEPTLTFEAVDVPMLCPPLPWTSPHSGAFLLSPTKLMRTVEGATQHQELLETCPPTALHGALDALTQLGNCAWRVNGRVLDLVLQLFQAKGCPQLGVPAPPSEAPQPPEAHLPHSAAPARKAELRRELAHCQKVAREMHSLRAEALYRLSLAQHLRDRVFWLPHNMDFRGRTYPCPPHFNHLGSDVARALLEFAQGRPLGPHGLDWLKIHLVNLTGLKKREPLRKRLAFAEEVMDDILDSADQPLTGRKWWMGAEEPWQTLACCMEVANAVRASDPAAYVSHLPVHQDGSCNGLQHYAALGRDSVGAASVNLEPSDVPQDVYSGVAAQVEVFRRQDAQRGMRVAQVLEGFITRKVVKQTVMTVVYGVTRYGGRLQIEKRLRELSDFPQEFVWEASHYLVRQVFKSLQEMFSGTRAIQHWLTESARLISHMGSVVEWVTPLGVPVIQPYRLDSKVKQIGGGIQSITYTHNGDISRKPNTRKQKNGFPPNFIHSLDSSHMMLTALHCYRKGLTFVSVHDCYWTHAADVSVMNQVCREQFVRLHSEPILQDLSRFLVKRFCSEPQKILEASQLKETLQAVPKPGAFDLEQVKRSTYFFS
Sequence of TFAM-CTΔ26;POLRMT;TFB2M del221-246 (human;human?;human?) (Q9H5Q4 20-396, stated change not applied, chain 3 of 2): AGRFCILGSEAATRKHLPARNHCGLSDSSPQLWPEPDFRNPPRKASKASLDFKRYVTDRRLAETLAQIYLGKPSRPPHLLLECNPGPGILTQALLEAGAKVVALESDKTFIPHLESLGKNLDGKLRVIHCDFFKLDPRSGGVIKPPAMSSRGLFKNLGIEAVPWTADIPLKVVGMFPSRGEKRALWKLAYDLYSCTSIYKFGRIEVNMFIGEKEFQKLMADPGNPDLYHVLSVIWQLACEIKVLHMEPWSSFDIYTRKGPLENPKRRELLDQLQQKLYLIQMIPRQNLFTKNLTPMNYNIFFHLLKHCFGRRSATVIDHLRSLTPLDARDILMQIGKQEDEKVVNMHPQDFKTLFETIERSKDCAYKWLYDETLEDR

As to “ATTGCTTTGAGGAGGTAAGCTACATAAACTGTGGGGGGTGTCTTTGGGGTTTGGTTGGTTCGGGGTATGGGGTTAGCAGCGGTGTGTGTGTGCTGGGTAGGATGGGCGGGGGTTGTATTGATGAGATTAGTAGTATGGGAGTGGGAGGGGAAAATAATGTGTTAGTTGGGGGGTGACTGTTAAAAGTGCATACCGCCAAAAGATAAAATTTGAAATCTGGTTAGGCTGGTGTT (double strand) [dual promoter template (DPT-WT)]”, the binding entry in data set [1] was “binds more weakly”; in data set [2], “binds”.
As for puc18 control construct (AFM), in data set [3], the Kd was 200 nM.
Consider mtDNA construct (AFM), for which the binding signal (fold weaker than WT TFAM) in data set [4] worked out at 10. Also, in data set [3], the dissociation constant (Kd) was 59 nM.

As a reminder, the Kd is the free concentration of one partner at which half of the binding sites on the other are occupied at equilibrium, for simple one-to-one binding. A low value points to tighter binding.
